Earlier results on one substance are cited in publication PMC5466068.

The series has as its target Cys32 (UniProt position 32, FSATWCGPCKM). Kind of series: NMR. The settings on record: not stated (a free thiol at the catalytic Cys implies the reduced form).

The term pKa denotes the negative logarithm of the acid dissociation constant. With Thioredoxin-1 (Thrx-1) (Homo sapiens), the pKa is on record as approximately 6.3.
